# From PMC4677347
# Columns and labels:
# [1] = target: human proteasome α6 subunit, short isoform (human) (UniProt P25786); assay: AUC; sedimentation velocity, α6 alone, 150 mM potassium phosphate pH 7.4, 55,000 rpm, c(s) analysis in SEDFIT
# [2] = target: human proteasome α6 subunit, short isoform (human) (UniProt P25786); assay: native MS; α6 alone at 5, 10 and 20 μM monomer, 150 mM ammonium acetate pH 7.5, nanoflow ESI under non-denaturing conditions
# [3] = target: human proteasome α7 subunit (human) (UniProt P25788); assay: AUC; sedimentation velocity, mixture of α7 and α6 at 1:4 molar ratio (α7 tetradecamer to α6 monomer), 150 mM potassium phosphate pH 7.4, 25,000 rpm
# [4] = target: human proteasome α7 subunit (human) (UniProt P25788); assay: native MS; α7 (2 μM tetradecamer) mixed with α6 (0.5, 1, 2, 4 and 8 μM monomer) at pH 7.5, incubated at 20 °C for 1 h, nanoflow ESI under non-denaturing conditions
# [5] = target: human proteasome α7 subunit (human) (UniProt P25788); assay: AUC; sedimentation velocity, α7 alone, 150 mM potassium phosphate pH 7.4, 25,000 rpm, c(s) analysis in SEDFIT
# [6] = target: human proteasome α7 subunit (human) (UniProt P25788); assay: native MS; α7 alone, 28 μM monomer, 10 mM ammonium acetate pH 6.8, nanoflow ESI under non-denaturing conditions
stoichiometry N [1],stoichiometry N [2],stoichiometry N [3],stoichiometry N [4],stoichiometry N [5],stoichiometry N [6],Substance
2,2,7 α7 per α6,7 α7 per α6,,,"human proteasome α6 subunit, short isoform (from UniProt P25786 1-263) (natural protein)"
,,7,7,14,14,human proteasome α7 subunit (from UniProt P25788 1-255) (natural protein)
